According to PMC5438047 (Nature chemical biology, 2017):

T1: human O-GlcNAc hydrolase (hOGA) (Homo sapiens, UniProt O60502, DEL397-534)
T1 sequence (O60502 11-396): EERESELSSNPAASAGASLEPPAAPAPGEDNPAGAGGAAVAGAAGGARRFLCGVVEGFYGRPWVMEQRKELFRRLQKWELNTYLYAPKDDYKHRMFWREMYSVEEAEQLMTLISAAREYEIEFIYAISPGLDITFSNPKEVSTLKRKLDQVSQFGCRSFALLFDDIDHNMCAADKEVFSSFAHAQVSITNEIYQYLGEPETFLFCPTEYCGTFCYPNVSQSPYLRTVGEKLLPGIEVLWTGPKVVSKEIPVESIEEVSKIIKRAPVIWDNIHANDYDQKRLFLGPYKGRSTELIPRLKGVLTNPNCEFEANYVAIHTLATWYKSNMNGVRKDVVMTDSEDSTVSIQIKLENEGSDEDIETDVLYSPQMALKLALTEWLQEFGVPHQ
T1 sequence (O60502 535-715): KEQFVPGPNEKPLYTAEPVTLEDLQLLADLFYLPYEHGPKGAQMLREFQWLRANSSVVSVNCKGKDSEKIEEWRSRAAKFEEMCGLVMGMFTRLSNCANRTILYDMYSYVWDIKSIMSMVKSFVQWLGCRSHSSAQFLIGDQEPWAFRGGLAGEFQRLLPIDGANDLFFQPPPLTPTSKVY


Key:
[1] = tested on: CC(=O)N[C@H]1[C@H](Oc2ccc([N+](=O)[O-])cc2)O[C@H](CO)[C@@H](O)[C@@H]1O; assay: purified protein
[2] = biological target: T1, human O-GlcNAc hydrolase (hOGA); assay: X-ray crystal structure; assay type: biochemical; details: cited from earlier work
SEC-MALS = biological target: the molecule itself; assay: SEC-MALS

Row | Molecule | stoichiometry N (SEC-MALS) | other results
1 | human O-GlcNAc hydrolase (hOGA) (Homo sapiens; DEL397-534) |  | Km [1]: 40.93 µM
2 | PUGNAc-imidazole |  | Ki [2]: 3.9 µM
3 | near full-length hOGA (His(6)9-916) (enzyme, human, UniProt O60502 9-916, looked up) TLEERESELSSNPAASAGASLEPPAAPAPGEDNPAGAGGAAVAGAAGGARRFLCGVVEGFYGRPWVMEQRKELFRRLQKWELNTYLYAPKDDYKHRMFWREMYSVEEAEQLMTLISAAREYEIEFIYAISPGLDITFSNPKEVSTLKRKLDQVSQFGCRSFALLFDDIDHNMCAADKEVFSSFAHAQVSITNEIYQYLGEPETFLFCPTEYCGTFCYPNVSQSPYLRTVGEKLLPGIEVLWTGPKVVSKEIPVESIEEVSKIIKRAPVIWDNIHANDYDQKRLFLGPYKGRSTELIPRLKGVLTNPNCEFEANYVAIHTLATWYKSNMNGVRKDVVMTDSEDSTVSIQIKLENEGSDEDIETDVLYSPQMALKLALTEWLQEFGVPHQYSSRQVAHSGAKASVVDGTPLVAAPSLNATTVVTTVYQEPIMSQGAALSGEPTTLTKEEEKKQPDEEPMDMVVEKQEETDHKNDNQILSEIVEAKMAEELKPMDTDKESIAESKSPEMSMQEDCISDIAPMQTDEQTNKEQFVPGPNEKPLYTAEPVTLEDLQLLADLFYLPYEHGPKGAQMLREFQWLRANSSVVSVNCKGKDSEKIEEWRSRAAKFEEMCGLVMGMFTRLSNCANRTILYDMYSYVWDIKSIMSMVKSFVQWLGCRSHSSAQFLIGDQEPWAFRGGLAGEFQRLLPIDGANDLFFQPPPLTPTSKVYTIRPYFPKDEASVYKICREMYDDGVGLPFQSQPDLIGDKLVGGLLSLSLDYCFVLEDEDGICGYALGTVDVTPFIKKCKISWIPFMQEKYTKPNGDKELSEAEKIMLSFHEEQEVLPETFLANFPSLIKMDIHKKVTDPSVAKSMMACLLSSLKANGSRGAFCEVRPDDKRILEFYSKLGCFEIAKMEGFPKDVVILGRSL | 2 | 
4 | hOGA Split1 (co-expressed fragments 11-396 and 535-715) (complex, human) chain 1: EERESELSSNPAASAGASLEPPAAPAPGEDNPAGAGGAAVAGAAGGARRFLCGVVEGFYGRPWVMEQRKELFRRLQKWELNTYLYAPKDDYKHRMFWREMYSVEEAEQLMTLISAAREYEIEFIYAISPGLDITFSNPKEVSTLKRKLDQVSQFGCRSFALLFDDIDHNMCAADKEVFSSFAHAQVSITNEIYQYLGEPETFLFCPTEYCGTFCYPNVSQSPYLRTVGEKLLPGIEVLWTGPKVVSKEIPVESIEEVSKIIKRAPVIWDNIHANDYDQKRLFLGPYKGRSTELIPRLKGVLTNPNCEFEANYVAIHTLATWYKSNMNGVRKDVVMTDSEDSTVSIQIKLENEGSDEDIETDVLYSPQMALKLALTEWLQEFGVPHQ chain 2: KEQFVPGPNEKPLYTAEPVTLEDLQLLADLFYLPYEHGPKGAQMLREFQWLRANSSVVSVNCKGKDSEKIEEWRSRAAKFEEMCGLVMGMFTRLSNCANRTILYDMYSYVWDIKSIMSMVKSFVQWLGCRSHSSAQFLIGDQEPWAFRGGLAGEFQRLLPIDGANDLFFQPPPLTPTSKVY | 2 | 
